From PMC7090928

Assays:
mCherry-EB3 full length [1] = target: mCherry-EB3 full length (UniProt Q9UPY8)
mCherry-EB3 full length [2] = target: mCherry-EB3 full length (UniProt Q9UPY8); assay: fluorescence correlation spectroscopy; 15 nM His-GFP-MTLS and 200 nM EB3 on dynamic MTs, no GUVs; peak intensity at passing MT tips against solution; 60 sites assumed in 6 dimer lengths, 1:1 EB3:MTLS assumed
[3] = target: dynamic microtubules (porcine brain tubulin) (porcine); assay: speed of membrane tube spreading on microtubules compared with a one-step model; His-GFP-MTLS bound to GUV membrane, no EB3; the attachment rate was chosen by comparing model curves for 8, 16 and 26 s^-1 with experimental data
mCherry-EB3 full length [4] = target: mCherry-EB3 full length (UniProt Q9UPY8); assay: single-molecule TIRF microscopy (dwell times and binding events on microtubules); 0.12 nM His-GFP-MTLS, 50 ms/frame, 200 nM mCherry-EB3 as tracer of plus ends; dwell times fitted with an exponential; MT tip taken as 200 nm long
mCherry-EB3 full length [5] = target: mCherry-EB3 full length (UniProt Q9UPY8); remark: listed apart in the source

Sequence of UniProt Q9UPY8 (Q9UPY8 whole entry): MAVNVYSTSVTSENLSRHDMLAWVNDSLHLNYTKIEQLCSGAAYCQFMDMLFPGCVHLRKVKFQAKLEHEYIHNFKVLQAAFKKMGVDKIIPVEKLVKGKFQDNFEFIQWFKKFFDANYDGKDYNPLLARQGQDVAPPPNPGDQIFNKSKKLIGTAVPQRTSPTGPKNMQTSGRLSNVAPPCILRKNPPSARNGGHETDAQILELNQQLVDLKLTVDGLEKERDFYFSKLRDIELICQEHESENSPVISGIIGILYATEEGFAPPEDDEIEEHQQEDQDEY
Sequence of dynamic microtubules (porcine brain tubulin) (porcine) (P68363 whole entry, chain 1 of 2): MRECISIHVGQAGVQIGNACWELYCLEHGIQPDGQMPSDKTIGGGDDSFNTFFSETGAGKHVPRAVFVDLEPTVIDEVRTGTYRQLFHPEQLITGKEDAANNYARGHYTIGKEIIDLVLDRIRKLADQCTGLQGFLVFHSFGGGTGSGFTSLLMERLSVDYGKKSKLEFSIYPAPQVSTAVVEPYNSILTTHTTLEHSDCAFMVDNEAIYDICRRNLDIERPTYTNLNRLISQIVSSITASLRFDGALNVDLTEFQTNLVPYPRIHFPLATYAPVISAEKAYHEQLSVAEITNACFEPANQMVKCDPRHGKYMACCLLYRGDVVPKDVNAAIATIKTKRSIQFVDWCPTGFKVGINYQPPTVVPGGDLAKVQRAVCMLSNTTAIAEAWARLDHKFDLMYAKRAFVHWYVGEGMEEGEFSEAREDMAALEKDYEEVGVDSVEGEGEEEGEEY
Sequence of dynamic microtubules (porcine brain tubulin) (porcine) (P02554 whole entry, chain 2 of 2, further chain): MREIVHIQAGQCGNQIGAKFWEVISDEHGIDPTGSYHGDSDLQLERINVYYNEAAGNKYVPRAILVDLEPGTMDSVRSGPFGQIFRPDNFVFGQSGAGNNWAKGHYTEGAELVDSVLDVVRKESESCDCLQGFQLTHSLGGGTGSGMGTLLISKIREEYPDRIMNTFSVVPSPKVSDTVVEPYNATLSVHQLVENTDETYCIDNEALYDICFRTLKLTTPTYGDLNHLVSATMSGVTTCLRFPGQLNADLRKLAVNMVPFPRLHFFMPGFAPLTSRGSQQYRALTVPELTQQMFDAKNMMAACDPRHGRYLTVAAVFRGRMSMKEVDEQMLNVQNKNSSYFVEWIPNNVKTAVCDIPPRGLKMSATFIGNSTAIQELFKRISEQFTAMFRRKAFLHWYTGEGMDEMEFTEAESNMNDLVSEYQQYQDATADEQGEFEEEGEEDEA

tubulation of GUVs on dynamic MTs at 200 nM EB3 and 15 nM His-GFP-MTLS (mCherry-EB3 full length [1])	maximum probability of being bound to the EB3-bound MT tip (mCherry-EB3 full length [2])	k on-m (estimated attachment rate of membrane-bound His-GFP-MTLS to the MT lattice, no EB3) [3]	fold association rate at MT tips (with 200 nM mCherry-EB3) over the on-rate at the MT shaft (mCherry-EB3 full length [4])	duration of the first positive displacement of Bio-mCherry-MTLS-coated beads at growing MT tips with 100 nM EB3 (most events shorter than 1 s without EB3) (mCherry-EB3 full length [5])	Substance
90%	0.46	16 s⁻¹	2.5 fold		His-GFP-MTLS (from UniProt Q03001 7528-7570)
				15 s	Bio-mCherry-MTLS (from UniProt Q03001 7528-7570)
